# Patent publication US20220218805A1 (UNIVERSITY OF BRITISH COLUMBIA, published 2022)
# Changes are numbered by the printed parent chain. Ends that are not written are not given here.
# T1: (4,1) cyclo(CGGGGKLDFG) (SEQ ID NO: 19) conjugated to BSA (not fully specified (residue 1); printed as cyclo(CGGGGKLDFG); also: conjugated to BSA (maleimide coupling))
# T1 construct: Screening antigen of the ELISA; also called KLDF (4,1); cyclic peptide-BSA
# T1 peptide: cyclo(CGGGGKLDFG)
# T2: (3,2) cyclo(CGGGKLDFGG) (SEQ ID NO: 16) conjugated to BSA (not fully specified (residue 1); printed as cyclo(CGGGKLDFGG); also: conjugated to BSA (maleimide coupling))
# T2 construct: Screening antigen of the ELISA; also called KLDF (3,2); cyclic peptide-BSA
# T2 peptide: cyclo(CGGGKLDFGG)
# T3: (3,1) cyclo(CGGGKLDFG) (SEQ ID NO: 15) conjugated to BSA (not fully specified (residue 1); printed as cyclo(CGGGKLDFG); also: conjugated to BSA (maleimide coupling))
# T3 construct: Screening antigen of the ELISA; also called KLDF (3,1); cyclic peptide-BSA
# T3 peptide: cyclo(CGGGKLDFG)
# T4: Linear CGGGGKLDFG (SEQ ID NO: 19) conjugated to BSA (also: conjugated to BSA)
# T4 construct: Screening antigen of the ELISA; also called corresponding linear peptide (4,1); linear peptide-BSA
# T4 peptide: CGGGGKLDFG
# T5: Linear CGGGKLDFGG (SEQ ID NO: 16) conjugated to BSA (also: conjugated to BSA)
# T5 construct: Screening antigen of the ELISA; also called corresponding linear peptide (3,2); linear peptide-BSA
# T5 peptide: CGGGKLDFGG
# T6: Linear CGGGKLDFG (SEQ ID NO: 15) conjugated to BSA (also: conjugated to BSA)
# T6 construct: Screening antigen of the ELISA; also called corresponding linear peptide (3,1); linear peptide-BSA
# T6 peptide: CGGGKLDFG
# B1: Ab29 (clone 12D11) (antibody, V domains shown)
# VH: QIQLVQSGPELKKPGETVKISCKASGYTFTNYGMNWVKQAPGKGLKWMGWINTYSGEPTYVDDFKGRFAFSLETSASTAYLQINNLKNEDMATYFCARSPGAYYTLDYWGQGTSVTVSS
# VL: DIVMSQSPSSLAVSAGEKVTMSCKSSQSLLNSRTRKNYLAWYQQKPGQSPKLLIYWASTRESGVPDRFTGSGSGTDFTLTISSVQAEDLAVYYCKQSYNLYTFGGGTKLEIK
# notes: tested as hybridoma supernatant; kappa light chain
# B2: Ab23 (clone 8E11) (antibody, V domains shown)
# VH: QVQLQQSGAELVRPGSSVKISCKASGYAFSSYWMNWVKQRPGQGLEWIGQIYPGDGDTNYNGKFKGKATLTADKSSSTAYMQLSSLTSEDSAVYLCASQIYDGYYTFTYWGQGTLVTVSA
# VL: B1 VL with E61V, Y101W
# notes: kappa light chain; also called 8E11.1
# B3: Ab12 (clone 10B10) (antibody, V domains shown)
# VH: B1 VH with Y32F, Y54F, S55T, S77T, M91T, A102R, Y103V
# VL: B1 VL
# notes: tested as hybridoma supernatant; kappa light chain; also called 10B10.1
# B4: Ab10 (clone 9D12) (antibody, V domains shown)
# VH: B1 VH with S55T, V61T, M91T, A97G, S99G, P100I, G101R, A102D, L106M
# VL: B1 VL with S32N
# notes: kappa light chain
# B5: Ab3 (clone 2C7) (antibody, V domains shown)
# VH: QVTLKESGPGILKPSQTLSLTCSFSGFSLSTSGMGVGWIRQPSGKGLEWLAHIWWDDDKYYNPSLKNRLTISKDTSRNQVFLKITSVDTADTATYYCVRSIYYYDSSPYYYVMDYWGQGTSVTVSS
# VL: DIVMTQSHKFMSTSVGDRVSITCKASQDVSIAVAWYQQKPGQSPKLLIYSASYRNTGVPDRFTGSGSGTDFTFTISSVQAEDLAVYYCQQHYSSPLTFGAGTKLELK
# notes: as for B1
# B6: Ab13 (clone 10C9) (antibody, V domains shown)
# VH: EVQLQQSGTVLARPGASVKMSCKASGYRFTSYWMYWVKQRPGQGLEWIGAIYPGNSDTIYNQRFKGKATLTAVTSASTAYMELSSLANEDSAVYFCTRPYFDSWGQGTTLTVSS
# VL: not shown
# notes: as for B1
# B7: Ab14 (clone 10D4) (antibody, V domains shown)
# VH: DVQLQESGPGLVKPSQSLSLTCTVTGFSITSDYAWNWIRQFPGNKLEWMGFIRYSGNTRFNPSLKGRGSITRDTSKNQFFLQLNSVTTEDTATYYCASTLEDSYWYFDVWGAGTTVTVSS
# VL: DVLMTQTPLSLPVSLGDQASISCRSSQSIVHTNGNTYLEWYLQKPGQSPKLLIYKVSNRFSGVPDRFSGSGSGTDFTLKISRVEAEDLGVYYCFQGSHVPLTFGAGTKLELK
# notes: as for B1
# B8: Ab11 (clone 9E4) (antibody, V domains shown)
# VH: DVQVQESGPGLVKPSQSLSLTCTVTGYSITSDYAWTWIRQFPGNKLEWMGYISYSGSTSYNPSLKSRLSITRDTSKNQFFLQLNSVTTEDTATYYCAAYYRYGLAYFAYWGQGTLVTVSA
# VL: not shown
# notes: kappa light chain; The clone name 9E4 is also printed for Ab27; also called 9E4.1
# B9: Ab21 (clone 2C6) (antibody, V domains shown)
# VH: EVQLQQSGAELVKPGASVKLSCTASGFNIKDTHMHWVKQRPEQGLEWIGKIDPSNGNTQYDPKFQGKATITADTSSNTAYLQLSSLTSEDTAVYYCATGFAYWGQGTLVTVSA
# VL: DIQMTQSPASLSASVGETVTITCRASGNIHNYLAWYQQKQGKSPQLLVYNAKTLADGVPSRFSGSGSGTQYSLKINSLQPEDFGSYYCQHFWYTPWTFGGGTKLEIK
# notes: tested as hybridoma supernatant; kappa light chain; also called 2C6.1
# B10: Ab15 (clone 10D9) (antibody, V domains shown)
# VH: QVQLQQSGAELVKPGASVKLSCKASGYTFTSYYMFWVKQRPGQGLEWIGEINPSNGGSNFNEKFKSKATLTVDKSSSTAYMQLSSLTSEDSAVYYCTRGAFWGQGTLVTVSA
# VL: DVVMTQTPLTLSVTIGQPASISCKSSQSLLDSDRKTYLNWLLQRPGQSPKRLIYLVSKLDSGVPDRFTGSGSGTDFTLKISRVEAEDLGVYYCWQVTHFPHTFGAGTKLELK
# notes: as for B1
# Biological target: T1, (4,1) cyclo(CGGGGKLDFG) (SEQ ID NO: 19) …
# Assay: indirect ELISA on other cyclic peptide-BSA conjugates
row,binding result,Binder
1,no binding,B1

# Biological target: T2, (3,2) cyclo(CGGGKLDFGG) (SEQ ID NO: 16) …
# Assay: as above
row,binding result,Binder
1,no binding,B1

# Biological target: T7, tau oligomers (SynAging) (UniProt P10636-8 1-441, limits assumed)
# T7 construct: also called misfolded oligomeric tau polypeptide
# T7 sequence (P10636 other isoform, or with tags, fused parts or gaps limits assumed): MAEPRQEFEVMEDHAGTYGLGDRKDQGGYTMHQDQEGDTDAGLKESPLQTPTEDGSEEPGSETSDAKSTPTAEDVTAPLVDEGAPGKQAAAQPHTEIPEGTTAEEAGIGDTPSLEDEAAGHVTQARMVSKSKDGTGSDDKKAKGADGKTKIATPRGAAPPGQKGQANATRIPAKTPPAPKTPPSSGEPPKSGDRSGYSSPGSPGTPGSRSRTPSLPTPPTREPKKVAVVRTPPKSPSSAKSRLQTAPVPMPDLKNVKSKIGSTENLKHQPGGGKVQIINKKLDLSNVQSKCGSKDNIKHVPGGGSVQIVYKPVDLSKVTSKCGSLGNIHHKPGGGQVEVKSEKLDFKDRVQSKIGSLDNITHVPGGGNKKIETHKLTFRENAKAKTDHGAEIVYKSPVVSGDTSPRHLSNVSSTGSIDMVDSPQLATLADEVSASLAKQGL
# Assay: SPR, oligomer RU / monomer RU (reference: tau monomers)
# Procedure: (§1) Antibodies were tested for their ability to bind monomeric tau polypeptide as well as misfolded oligomeric tau polypeptide using surface plasmon resonance. Surface plasmon resonance measurements were performed using a Molecular Affinity Screening System (Sierra Sensors, Hamburg, Germany). Tau monomers (Stressmarq, Victoria, BC, Canada) or tau oligomers (SynAging, Vandoeuvre-les-Nancy, France) were immobilized on high amine capacity sensorchips and hybridoma supernatants (50% dilution) were injected over the immobilized surfaces at 10 μl/minute for 4 min followed by a 5 min dissociation phase. Mouse IgG1 was used as a negative control and a pan-tau reactive antibody was used as a positive control. The reverse orientation was used for purified antibodies: the mAbs were immobilized covalently on the surface of sensorchips (8000-12000 RUs) and serial dilutions of tau monomers or oligomers were injected over the surface.
row,Ratio (O/M),Binder
1,2.1,B1
2,2.2,B2
3,2.9,B3
4,2.7,B4
5,1.3,B5
6,3.1,B6
7,2.6,B7
8,2.6,B8
9,1.9,B9
10,3.7,B10

# Biological target: T8, tau monomers (Stressmarq) (UniProt P10636-8 1-441, limits assumed)
# T8 construct: also called monomeric tau polypeptide
# T8 sequence (P10636 other isoform, or with tags, fused parts or gaps limits assumed): as above
# Assay: SPR, hybridoma supernatant over immobilized tau monomers
# Procedure: as §1
row,binding response (RU),Binder
1,3 RU,B1
2,4.6 RU,B2
3,5 RU,B3
4,5.2 RU,B4
5,201 RU,B5
6,4.8 RU,B6
7,6.9 RU,B7
8,6.5 RU,B8
9,3.5 RU,B9
10,3 RU,B10

# Biological target: T7, tau oligomers (SynAging)
# Assay: SPR, hybridoma supernatant over immobilized tau oligomers
# Procedure: as §1
row,binding response (RU),Binder
1,6.2 RU,B1
2,10.2 RU,B2
3,14.5 RU,B3
4,14 RU,B4
5,269 RU,B5
6,14.7 RU,B6
7,18 RU,B7
8,17 RU,B8
9,6.6 RU,B9
10,10.9 RU,B10

# Biological target: T1, (4,1) cyclo(CGGGGKLDFG) (SEQ ID NO: 19) …
# Assay: indirect ELISA, hybridoma supernatant on cyclic peptide-BSA
# Procedure: (§2) Tissue culture supernatants from the hybridomas were tested by indirect ELISA on screening antigen (cyclic peptide-BSA and linear peptide-BSA) and were probed for both IgG and IgM antibodies using a Goat anti-IgG/IgM(H&L)-HRP secondary antibody and developed with TMB substrate.
row,OD,Binder
1,1.79 OD,B5

# Biological target: T2, (3,2) cyclo(CGGGKLDFGG) (SEQ ID NO: 16) …
# Assay: as above
# Procedure: as §2
row,OD,Binder
1,1.74 OD,B3
2,1.6 OD,B4
3,1.29 OD,B6
4,1.7 OD,B7
5,1.64 OD,B8
6,1.58 OD,B10

# Biological target: T3, (3,1) cyclo(CGGGKLDFG) (SEQ ID NO: 15) …
# Assay: as above
# Procedure: as §2
row,OD,Binder
1,1.35 OD,B1
2,1.19 OD,B2
3,1.21 OD,B9

# Biological target: T4, Linear CGGGGKLDFG (SEQ ID NO: 19) …
# Assay: indirect ELISA, hybridoma supernatant on linear peptide-BSA
# Procedure: as §2
row,OD,Binder
1,1.61 OD,B5

# Biological target: T5, Linear CGGGKLDFGG (SEQ ID NO: 16) …
# Assay: as above
# Procedure: as §2
row,OD,Binder
1,0.784 OD,B3
2,0.78 OD,B4
3,0.788 OD,B7
4,0.232 OD,B8
5,0.774 OD,B10

# Biological target: T6, Linear CGGGKLDFG (SEQ ID NO: 15) …
# Assay: as above
# Procedure: as §2
row,OD,Binder
1,1.69 OD,B2
